Data on 1 substance can be found in US20260250352A1.

Where two headings read alike, the source gives them in different places.

Experiment [1] addresses recombinant human BAFF (human) (UniProt Q9Y275).
A further experiment deals with BAFF 60-mer (human) (UniProt Q9Y275). The experiment can be described thus: cell-based or functional assay.
Experiment [2] concerns the target recombinant mouse BAFF (mouse) (UniProt Q9WU72). The experiment can be described thus: cell-based or functional assay.
The target in experiment [3] is APRIL + BAFF in combination (human). In words: cell-based or functional assay.
In experiment [4] the target is recombinant human APRIL (human) (UniProt O75888). In words: cell-based or functional assay.
For experiment [5], the target named is single chain APRIL-BAFF-BAFF heterotrimer (ABB) (human) (UniProt O75888). In words: cell-based or functional assay.
The target in experiment [6] is recombinant human BAFF (human) (UniProt Q9Y275). The experiment can be described thus: cell-based or functional assay.
The target of experiment [7] is recombinant mouse APRIL (mouse) (UniProt Q9D777). In words: cell-based or functional assay.
Experiment [8] has as its target single chain BAFF homotrimer (BAFF-BAFF-BAFF) (human) (UniProt Q9Y275). The experiment can be described thus: cell-based or functional assay.
The target in experiment [9] is single chain BAFF-APRIL-APRIL heterotrimer (BAA) (human) (UniProt Q9Y275). In words: cell-based or functional assay.
For experiment [10], the target named is recombinant human APRIL (human) (UniProt O75888). The experiment can be described thus: cell-based or functional assay. This is another data set of the same source.
Experiment [11] has as its target recombinant human BAFF (human) (UniProt Q9Y275). The experiment can be described thus: cell-based or functional assay. This is another data set of the same source.
Experiment [12] concerns the target recombinant human APRIL (human) (UniProt O75888).
Experiment [13] deals with recombinant human BAFF (human) (UniProt Q9Y275). The source holds these as a separate data set.
For experiment [14] the target is unchanged. The source holds these as a separate data set.
The target in experiment [15] is recombinant mouse BAFF (mouse) (UniProt Q9WU72).
For experiment [16], the target named is recombinant mouse APRIL (mouse) (UniProt Q9D777).

Chain of 13 TACI CRD2-Fc (Fc fusion) (chain): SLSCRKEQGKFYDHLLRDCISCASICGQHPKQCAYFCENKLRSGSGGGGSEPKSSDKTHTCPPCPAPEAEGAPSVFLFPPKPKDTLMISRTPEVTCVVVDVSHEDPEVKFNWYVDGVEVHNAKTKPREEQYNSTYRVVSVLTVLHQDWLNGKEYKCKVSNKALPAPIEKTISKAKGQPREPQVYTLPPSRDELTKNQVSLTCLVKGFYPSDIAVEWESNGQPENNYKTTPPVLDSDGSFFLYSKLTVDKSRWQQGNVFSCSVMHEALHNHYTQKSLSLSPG
Chain of recombinant mouse BAFF (mouse) (Q9WU72 127-309 limits assumed): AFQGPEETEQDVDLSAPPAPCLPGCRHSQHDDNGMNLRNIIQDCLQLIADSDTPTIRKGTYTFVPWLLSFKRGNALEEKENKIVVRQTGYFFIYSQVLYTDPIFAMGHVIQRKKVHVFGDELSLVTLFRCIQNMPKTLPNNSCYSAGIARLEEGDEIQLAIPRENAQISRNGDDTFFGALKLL
Chain of recombinant mouse APRIL (mouse) (Q9D777 96-241 limits assumed): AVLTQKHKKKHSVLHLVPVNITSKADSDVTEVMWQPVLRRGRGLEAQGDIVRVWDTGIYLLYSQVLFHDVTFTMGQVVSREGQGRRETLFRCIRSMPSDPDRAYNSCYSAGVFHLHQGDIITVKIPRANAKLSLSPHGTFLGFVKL

Turning to 13 TACI CRD2-Fc (Fc fusion), the IC50 (read off the curve), human BAFF, NF-κB luciferase reporter, Jurkat/NF-κB/TACI cells in [1] came to 4 nM. Further, the IC50, TACI/Jurkat/NF-kB reporter with BAFF 60-mer (human) turned out to be 18.7 nM; in experiment [2] it was 2.2 nM; in [3], 12.9 nM; in experiment [4] it was 8.5 nM; in [5], 0.179 nM; in [6] it was 3 nM. For the same substance, the IC50, TACI/Jurkat/NF-kB reporter in [7] was 2.9 nM; in experiment [8], 7.46 nM; in experiment [9], less than 0.016 nM. Besides, the IC50, Jurkat/NF-kB/TACI reporter in experiment [4] amounted to 369 nM; in experiment [6], 1330 nM; in experiment [10] it was 12.3 nM; in experiment [11] it was 1.85 nM. Besides, the figures for the IC50 relative to TACI 30-110-Fc in [4] and in experiment [6] were 0.1 and 0.23, respectively. Further, the IC50 relative to WT TACI (68-110)-Fc (Δ WT) in experiment [10] and in [11] was 1 in each case. Moreover, in experiment [12], the IC50 (read off the curve), human APRIL, NF-κB luciferase reporter, Jurkat/TACI/NF-κB cells turned out to be 5 nM. For the same substance, the IC50 (read off the curve), human BAFF, NF-κB luciferase reporter, Jurkat/TACI/NF-κB cells in [13] was 2 nM. For the same substance, the IC50 (read off the curve), human BAFF, NF-κB luciferase reporter, TACI/Jurkat/NF-κB cells in experiment [14] stood at 3 nM. In experiment [15], the IC50 (read off the curve), mouse BAFF, NF-κB luciferase reporter, Jurkat/NF-κB/TACI cells was 5 nM. Also, the IC50 (read off the curve), mouse APRIL, NF-κB luciferase reporter, Jurkat/NF-κB/TACI cells in [16] was 0.7 nM.
